Assay results from paper PMC4643883.
Where two headings read alike, the source gives them in different places. Each block holds one molecule with its values, some of them ahead of it.

Assays:
[1] = target: Drosophila Telomere Loss / Modigliani (DTL/Moi), D. melanogaster (Drosophila melanogaster) (UniProt B7Z0L8); assay: SEC; combined heparin-sepharose fractions of co-expressed Ver and DTL/Moi; Superdex 200 10/300 GL; 20 mM Tris pH 7.5, 100 mM NaCl
[2] = target: Drosophila Telomere Loss / Modigliani (DTL/Moi), D. melanogaster (Drosophila melanogaster) (UniProt B7Z0L8); assay: as above; remark: listed apart in the source

Sequence of UniProt B7Z0L8 (B7Z0L8 whole entry): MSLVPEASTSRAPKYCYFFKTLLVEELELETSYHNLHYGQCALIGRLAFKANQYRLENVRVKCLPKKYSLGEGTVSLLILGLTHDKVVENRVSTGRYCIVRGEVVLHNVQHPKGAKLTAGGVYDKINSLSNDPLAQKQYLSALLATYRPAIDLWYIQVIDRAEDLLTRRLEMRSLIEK

stoichiometry N [1]: 1
Molecule: D. yakuba Verrocchio (Ver) (natural protein)

stoichiometry N [2]: 1
B1: Verrocchio (Ver), D. melanogaster (natural protein)
chain: MDFNQSFEDIESQLDNFVIRKNQQSEKSTGKCGPEVHDNVPLTISQIERATQDPENENVFITDDVHPIHFCTCIIYAFVTGNGTHNESFMKFMIDDGTGSLEASITKKPFNGRVISSLYSEASSLASSEAYKSIAVSMMRLLQVSMEYIDPTRISRGHSLFLRGRPNRFRGKMGLDAFQFFIDSGRSRNMEIGFVDYLTDWQRRHKTMQNTTNK
